Read-outs that look alike come from different tables or passages of the source.
Columns and labels:
[1] = molecular target: SNAP25 full length (Homo sapiens) (UniProt P60880); settings: W indole-dU, X amine-dU, direct ELISA signal
[2] = test system: Negative control random peptide; experiment: ELONA; settings: W indole, X amine

Chain of SNAP25 full length (Homo sapiens) (P60880 whole entry): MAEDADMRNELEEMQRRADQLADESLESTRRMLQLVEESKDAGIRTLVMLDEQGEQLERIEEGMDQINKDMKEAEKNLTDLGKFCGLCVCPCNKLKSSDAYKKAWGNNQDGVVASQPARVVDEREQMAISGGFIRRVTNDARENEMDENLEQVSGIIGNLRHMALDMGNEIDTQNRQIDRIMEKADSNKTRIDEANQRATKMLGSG

TTTTTAAGCCCACCTGACTGTGGTGGGCACAGTTCGCCATCGTGGGCCCATG [PEP 1.14]
binding signal ([1]; Y phenol-dU [15 phenol-dU, 19 phenol-dU, 24 indole-dU, 34 phenol-dU, 40 indole-dU], negative peptide 5): 2

TTTTTAACACGACATCACTGTGGAAGACACAGGACGTGCGTGTCGTGCCATG [PEP 3.22]
binding signal ([1]; Y phenol-dU [15,19,46 (phenol-dU), 43 (amine-dU)], negative peptide 26): 7

TTTTTAAGCCCACACGTGTTCGGATCGCACAGTTATTGGCAGTCGTGCCATG [PEP 4.20]
binding signal ([1]; Y phenol-dU [17,19,20,25,34,36,43,46], negative peptide 3): 4

TTTTTAACACGACAGCCCTGTGCAGGCCGAACGGCGTTGATGTCGTGCCATG [PEP 4.12]
binding signal ([1]; Y phenol-dU [19,46 phenol-dU, 38 indole-dU, 43 amine-dU], negative peptide 3): 0

TTTTTAACACGACACCACTGTGCCCACCACAGTTCACTGAAGTGGGCCCATG [PEP 3.14]
binding signal ([1]; Y phenol-dU [19,34 (phenol-dU), 38 (indole-dU)], negative peptide 52): 8

TTTTTAACACGACAGCACTGTGGTTCGCGAACCTCAAGCTCGTCGTGCCATG [PEP 3.02]
binding signal ([2]; Y phenol modified dU [19Y,24W,25X,34Y,40W,43X,46Y]): 59 ELISA signal

TTTTTAAGCCCACAAGCGTTCGGCTCTCATAGATCGTTGACGTGGGCCCATG [PEP 4.19]
binding signal ([1]; Y phenol-dU [19,20,25,27,34,38], negative peptide 0): 0

TTTTTAAGCCCACCTCACTGTGCAAGTCACAGGTCGGCACCGTGGGCCCATG [PEP 3.23]
binding signal ([1]; Y phenol-dU [15,19,34 (phenol-dU), 27 (amine-dU)], negative peptide 35): 5

TTTTTAACACGACATAGGTTCGCTGGTCACAGAATGTTGTGGTGGGCCCATG [PEP 2.09]
binding signal ([1]; Y phenol-dU [15,19,20,24,27,35,38,40], negative peptide 5): 9

TTTTTAACACGACATATGTTCGACGGACACAGTGTGTGGCGGTCGTGCCATG [PEP 4.09]
binding signal ([2]; Y phenol modified dU [15,17,19,20,35,43,46]): 0 ELISA signal

TTTTTAAGCCCACGTTTGTTCGGTGGTCACAGCACGCCACGGTCGTGCCATG [PEP 2.08]
binding signal ([1]; Y phenol-dU [15,16,17,19,20,24,27,43,46], negative peptide 9): 8

TTTTTAACACGACGTCGCTGTGGTCAACGAACAGATACAACGTCGTGCCATG [PEP 2.07]
binding signal ([1]; Y phenol-dU [15,19,24,36,43,46], negative peptide 17): 8

TTTTTAAGCCCACGCCAGTTCGGTCAACGAACTACGGTGATGTGGGCCCATG [PEP 4.17]
binding signal ([1]; Y phenol-dU [19,20,24,38], negative peptide 0): 0

TTTTTAAGCCCACTTGGCTGTGCACATCACAGAACAAGCAGGTGGGCCCATG [PEP 2.11]
binding signal ([1]; Y phenol-dU [14,15,19,27], negative peptide 2): 0

TTTTTAACACGACGCTCCTGTGACAGCCGAACATCATTGGTGTCGTGCCATG [PEP 1.04]
binding signal ([1]; Y phenol-dU [16 indole-dU, 19 phenol-dU, 34 phenol-dU, 38 indole-dU, 43 amine-dU, 46 phenol-dU], negative peptide 4): 5

TTTTTAACACGACTTGGGTTCGGAAGGCGAACCGCAGCAATGTGGGCCCATG [PEP 1.22]
binding signal ([1]; Y phenol-dU [amine-dU @14, phenol-dU @15,20, indole-dU @19], negative peptide 2): 8

TTTTTAAGCCCACCCGAGTTCGTCCAGCGAACCACGCGCGTGTCGTGCCATG [PEP 4.11]
binding signal ([2]; Y phenol modified dU [19,20,23,43,46]): 0 ELISA signal

TTTTTAACACGACGCCAGTTCGAAGGTCACAGTTATTTGGCGTCGTGCCATG [PEP 1.11]
binding signal ([1]; Y phenol-dU [19 indole-dU, 20 phenol-dU, 27 amine-dU, 34 phenol-dU, 36 indole-dU, 38 indole-dU, 43 amine-dU, 46 phenol-dU], negative peptide 11): 4

TTTTTAACACGACGTTACTGTGGTCACCACAGGATGAGGCTGTCGTGCCATG [PEP 2.17]
binding signal ([1]; Y phenol-dU [phenol-dU@15,19,35,46, indole-dU@16,24, amine-dU@43], negative peptide 12): 2

TTTTTAAGCCCACGGGTCTGTGGTCACCGAACGACGTGGCAGTGGGCCCATG [PEP 2.14]
binding signal ([1]; Y phenol-dU [17,19,24], negative peptide 7): 2

TTTTTAAGCCCACGGGGCTGTGAGCAACGAACATTGGCACAGTCGTGCCATG [PEP 4.21]
binding signal ([1]; Y phenol-dU [19,34,35,43,46], negative peptide 8): 0

TTTTTAACACGACTATTCTGTGAGTCTCGAACTGCGACAACGTGGGCCCATG [PEP 4.18]
binding signal ([1]; Y phenol-dU [14,16,17,19,25,27], negative peptide 4): 10

TTTTTAAGCCCACGACACTGTGGCCAACACAGTACATGCATGTGGGCCCATG [PEP 3.07]
binding signal ([1]; Y phenol-dU [phenol-dU@19], negative peptide 64): 10

TTTTTAACACGACGTGACTGTGAGAGGCACAGTTTGGGGGCGTGGGCCCATG [PEP 4.15]
binding signal ([1]; Y phenol-dU [15,19,34,35 phenol-dU], negative peptide 7): 4

TTTTTAACACGACGTTACTGTGGTCACCACAGGATGAGCTTGTCGTGCCATG [PEP 2.15]
binding signal ([1]; Y phenol-dU [15,16,19,24,35,40,43,46], negative peptide 9): 0

TTTTTAAGCCCACAAAAGTTCGGGCAGCACAGGTCGCTGAGGTCGTGCCATG [PEP 4.14]
binding signal ([1]; Y phenol-dU [19,38 indole-dU, 20,34,46 phenol-dU, 43 amine-dU], negative peptide 15): 2

TTTTTAAGCCCACGGTGCTGTGGAAGCCACAGTACAATGGAGTGGGCCCATG [PEP 4.22]
binding signal ([1]; Y phenol-dU [16,19,38], negative peptide 3): 5

TTTTTAACACGACCATTCTGTGCCAGCCGAACTCCGTGCTGGTGGGCCCATG [PEP 4.08]
binding signal ([1]; Y phenol-dU [16,17,40 indole-dU, 19 phenol-dU], negative peptide 5): 9

TTTTTAACACGACAGCACTGTGCACAGCACAGCTCAAGGGTGTGGGCCCATG [PEP 3.10]
binding signal ([1]; Y phenol-dU [phenol-dU@19,34], negative peptide 51): 10

TTTTTAAGCCCACTGGCCTGTGGTCAGCGAACTGTGCGCTGGTGGGCCCATG [PEP 2.10]
binding signal ([1]; Y phenol-dU [14,19,24,35,40], negative peptide 2): 7

TTTTTAAGCCCACATAGGTTCGGTGGTCACAGTGTGGTGCGGTGGGCCCATG [PEP 2.16]
binding signal ([1]; Y phenol-dU [15,19,20,24,27,35,38], negative peptide 5): 4

TTTTTAACACGACCGCCCTGTGGGCAACACAGGGATCTGCAGTCGTGCCATG [PEP 1.24]
binding signal ([1]; Y phenol-dU [phenol-dU @19,46, indole-dU @36,38, amine-dU @43], negative peptide 9): 8

TTTTTAACACGACTGCACTGTGAATCTCGAACGCATCGGGAGTCGTGCCATG [PEP 3.15]
binding signal ([1]; Y phenol-dU [14,25,27,43 (amine-dU), 19,46 (phenol-dU), 36 (indole-dU)], negative peptide 39): 9

TTTTTAAGCCCACATGCCTGTGGTCATCGAACATTGGGCCGGTCGTGCCATG [PEP 2.13]
binding signal ([1]; Y phenol-dU [15,19,24,27,34,35,43,46], negative peptide 11): 0

TTTTTAACACGACGTTACTGTGGTCATCACAGGATGAGCCTGTCGTGCCATG [PEP 2.18]
binding signal ([1]; Y phenol-dU [phenol-dU@15,19,35,46, indole-dU@16,24, amine-dU@27,43], negative peptide 9): 0

TTTTTAACACGACGTTACTGTGGTCACCACAGGATGAGCCTGTCGTGCCATG [PEP 2.01]
binding signal ([2]; Y phenol modified dU [15,16,19,24,35,43,46]): 204 ELISA signal

TTTTTAAGCCCACTTCACTGTGGCTCGCACAGGCCGATGGGGTCGTGCCATG [PEP 1.23]
binding signal ([1]; Y phenol-dU [amine-dU @14,25,43, phenol-dU @15,19,46, indole-dU @38], negative peptide 0): 0

TTTTTAAGCCCACCAGGGTTCGGGAGCCGAACGCCAGCACTGTCGTGCCATG [PEP 3.24]
binding signal ([1]; Y phenol-dU [19 (indole-dU), 20,46 (phenol-dU), 43 (amine-dU)], negative peptide 22): 5

TTTTTAACACGACATAGCTGTGACAGGCACAGGTCATGGGAGTCGTGCCATG [PEP 1.19]
binding signal ([1]; Y phenol-dU [phenol-dU @15,19,34,46, amine-dU @43], negative peptide 3): 0

TTTTTAAGCCCACATACGTTCGATGGTCACAGATTGGGCAAGTCGTGCCATG [PEP 2.02]
binding signal ([2]; Y phenol modified dU [15,19,20,24,27,34,35,43,46]): 55 ELISA signal

TTTTTAAGCCCACGGGTGTTCGACAGACACAGCAATACATCGTGGGCCCATG [SNAP.03]
binding signal ([2]; Y phenol modified dU [17,19,20,36,40]): 21 ELISA signal

TTTTTAACACGACCATCCTGTGCCTCACGAACTCATTGCCCGTCGTGCCATG [PEP 1.02]
binding signal ([2]; Y phenol modified dU [16,19,25,36,43,46]): 15 ELISA signal

TTTTTAAGCCCACGGCCGTTCGGCCACCACAGTGTGGCAGCGTCGTGCCATG [PEP 4.13]
binding signal ([1]; Y phenol-dU [19 indole-dU, 20,35,46 phenol-dU, 43 amine-dU], negative peptide 0): 0
